Molecular target: human VWF-A2 fragment (human)

human recombinant wild-type complement factor H, sequence (P08603 19-1231): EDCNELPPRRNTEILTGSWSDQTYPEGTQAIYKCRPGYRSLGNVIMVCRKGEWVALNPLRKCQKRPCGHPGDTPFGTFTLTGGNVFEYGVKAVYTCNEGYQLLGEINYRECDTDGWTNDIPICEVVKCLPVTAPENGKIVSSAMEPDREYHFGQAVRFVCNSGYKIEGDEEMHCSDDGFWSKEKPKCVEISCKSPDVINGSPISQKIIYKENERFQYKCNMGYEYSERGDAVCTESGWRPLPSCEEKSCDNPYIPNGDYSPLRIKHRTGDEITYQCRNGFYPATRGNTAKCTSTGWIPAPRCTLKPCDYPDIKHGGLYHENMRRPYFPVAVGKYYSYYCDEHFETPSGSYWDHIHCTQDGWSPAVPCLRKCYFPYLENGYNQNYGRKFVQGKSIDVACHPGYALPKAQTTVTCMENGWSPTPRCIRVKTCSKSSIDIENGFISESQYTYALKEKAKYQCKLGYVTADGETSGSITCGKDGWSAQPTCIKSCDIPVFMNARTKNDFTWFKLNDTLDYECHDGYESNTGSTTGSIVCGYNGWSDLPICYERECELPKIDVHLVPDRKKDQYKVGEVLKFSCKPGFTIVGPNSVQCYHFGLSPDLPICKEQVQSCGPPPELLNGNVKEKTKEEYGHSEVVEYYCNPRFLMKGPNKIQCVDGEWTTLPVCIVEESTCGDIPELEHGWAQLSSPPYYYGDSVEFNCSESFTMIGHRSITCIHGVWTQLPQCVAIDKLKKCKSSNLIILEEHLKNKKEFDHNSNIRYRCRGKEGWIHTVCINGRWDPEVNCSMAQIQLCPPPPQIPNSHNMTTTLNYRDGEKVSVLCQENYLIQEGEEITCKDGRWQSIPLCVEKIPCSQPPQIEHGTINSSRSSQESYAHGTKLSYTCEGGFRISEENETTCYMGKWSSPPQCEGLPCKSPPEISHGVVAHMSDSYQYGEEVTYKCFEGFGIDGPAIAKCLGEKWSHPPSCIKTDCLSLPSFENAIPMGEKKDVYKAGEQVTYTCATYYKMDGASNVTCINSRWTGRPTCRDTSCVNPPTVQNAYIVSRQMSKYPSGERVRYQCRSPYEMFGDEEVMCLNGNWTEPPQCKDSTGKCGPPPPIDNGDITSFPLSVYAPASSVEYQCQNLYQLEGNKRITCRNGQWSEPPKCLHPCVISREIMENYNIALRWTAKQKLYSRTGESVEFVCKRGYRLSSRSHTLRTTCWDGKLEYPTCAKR

| optical tweezer pulling of VWF-A2 (Avi-His/SpyTag, biotinylated construct) with 1.0 μM WT-CFH: contour length Lc (no CFH: 55,3 nm) [nm] | optical tweezer pulling of VWF-A2 with 1.0 μM WT-CFH: energy barrier position γ, Bell-Evans fit (no CFH: 0.71 nm) [nm] | optical tweezer pulling of VWF-A2 with 1.0 μM WT-CFH: persistent length Lp (no CFH: 0.28 nm) [nm] | optical tweezer pulling of VWF-A2 with 1.0 μM WT-CFH: unstressed unfolding rate ku0, Bell-Evans fit (no CFH: 0.15 s^-1) [s⁻¹] | optical tweezer pulling of VWF-A2 (Avi-His/SpyTag, biotinylated construct) with 1.0 μM W1183R-CFH: contour length Lc (no CFH: 55,3 nm) [nm] | optical tweezer pulling of VWF-A2 with 1.0 μM W1183R-CFH: energy barrier position γ, Bell-Evans fit (no CFH: 0.71 nm) [nm] | optical tweezer pulling of VWF-A2 with 1.0 μM W1183R-CFH: persistent length Lp (no CFH: 0.28 nm) [nm] | optical tweezer pulling of VWF-A2 with 1.0 μM W1183R-CFH: unstressed unfolding rate ku0, Bell-Evans fit (no CFH: 0.15 s^-1) [s⁻¹] | Substance |
| --- | --- | --- | --- | --- | --- | --- | --- | --- |
| 40 | 1.88 | 0.38 | 0.017 |  |  |  |  | human recombinant wild-type complement factor H (from UniProt P08603 19-1231) (natural protein) |
|  |  |  |  | 31.8 | 1.38 | 0.38 | 0.034 | human recombinant W1183R complement factor H (from UniProt P08603 19-1231) (natural protein) |

Reference: article PMC13123425
